Data from US20260234255A1 (Genmab, published 2026).

T1: human CD30 (human, UniProt P28908 19-595)
T1 construct: also called huCD30; TNFRSF8
T1 sequence: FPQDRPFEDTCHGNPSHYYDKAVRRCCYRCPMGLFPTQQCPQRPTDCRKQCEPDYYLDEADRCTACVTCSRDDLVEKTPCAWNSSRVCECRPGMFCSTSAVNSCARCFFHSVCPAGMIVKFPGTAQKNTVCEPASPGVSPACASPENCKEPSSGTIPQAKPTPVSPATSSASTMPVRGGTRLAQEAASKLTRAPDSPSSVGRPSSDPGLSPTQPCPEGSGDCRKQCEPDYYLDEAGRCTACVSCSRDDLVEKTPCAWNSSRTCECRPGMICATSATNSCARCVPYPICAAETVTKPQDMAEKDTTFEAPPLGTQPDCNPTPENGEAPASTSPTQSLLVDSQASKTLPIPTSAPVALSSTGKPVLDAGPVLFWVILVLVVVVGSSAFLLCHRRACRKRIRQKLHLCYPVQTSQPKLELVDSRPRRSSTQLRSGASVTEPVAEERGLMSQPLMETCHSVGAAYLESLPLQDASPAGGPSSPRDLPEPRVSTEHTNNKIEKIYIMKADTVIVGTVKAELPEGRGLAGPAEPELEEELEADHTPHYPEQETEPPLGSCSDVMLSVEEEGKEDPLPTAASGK


How the values were obtained:
[1] = target: T1, human CD30; assay: flow cytometry, SU-DHL-1 cells
How it was run: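 CD3×CD30 bispecific antibodies, serially diluted 3-fold from 10 to 0.0046 μg/mL, were incubated with 3×10⁴ cells/well at 4° C for 30 min, then with a secondary antibody at 4° C for 30 min. Live cells were gated by FSC/SSC and TO-PRO-3 exclusion, and curves were fitted by four-parameter sigmoidal regression.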

[2] = target: T1, human CD30; assay: flow cytometry, DEL cells, experiment N = 1
[3] = target: T1, human CD30; assay: flow cytometry, SUP-T1 cells (TLL), average of 2 tests; SUP-T1 cells (TLL), average of 2 tests
Description: (§1) Cells (3×10⁴ cells/well) were incubated in polystyrene 96-well round-bottom plates (Greiner bio-one, cat. no. 650180) with serial dilutions of antibodies (range 0.0046 to 10 μg/mL in 3-fold dilution steps) in 50 μL staining buffer at 4° C. for 30 min. After washing twice in staining buffer, cells were incubated with 50 μL secondary antibody at 4° C. for 30 min. […] Next, cells were washed twice in staining buffer, resuspended in 100 μL staining buffer supplemented with TO-PRO-3 iodide (Thermo Fisher Scientific; cat. no. T3605; 1:8000 dilution) and analyzed on a FACSCelesta flow cytometer (BD Biosciences, USA). Live cells were gated based on FSC/SSC and absence of TOPRO-3 staining. Binding curves were analyzed by non-linear regression of log-transformed data (sigmoidal dose-response with variable slope, four parameters) using GraphPad Prism V7.02 software (GraphPad Software, San Diego, CA, USA).

[4] = target: T1, human CD30; assay: flow cytometry, L-1236 cells (HL), range of 3 tests
Description: as §1

[5] = target: T1, human CD30; assay: flow cytometry, KI-JK cells (ALCL), average of 3 tests
Description: as §1

[6] = target: T1, human CD30; assay: flow cytometry, JVM-2 cells (MCL), average of 3 tests
Description: as §1

[7] = target: T1, human CD30; assay: flow cytometry, HEK293 cells transfected with human CD30
Description: Cells (3×10⁴ cells/well) were incubated in polystyrene 96-well round-bottom plates (Thermo Scientific, cat. no. 163320) with serial dilutions of antibodies (ranging from 0.0002 to 50 μg/mL in 4-fold dilution steps) in 50 μL staining buffer at 4° C. for 30 min. Experiments were performed in technical duplicate. After washing twice in staining buffer, cells were incubated in 50 μL secondary antibody at 4° C. for 30 min. As a secondary antibody, R-PE-conjugated goat-anti-human IgG (Jackson ImmunoResearch, UK; cat. no. 109⁻¹¹⁶-098) diluted 1:200 in staining buffer was used. Cells were washed twice in staining buffer, resuspended in 30 μL staining buffer containing 0.4% EDTA and the ToPro-3 viability marker (Invitrogen, cat. no. T3605) diluted 1:10,000. Cells were analyzed on an iQue Screener (Intellicyt Corporation, USA). Binding curves were analyzed using non-linear regression (sigmoidal dose-response with variable slope) using GraphPad Prism V9.0.0 software (GraphPad Software, San Diego, CA, USA).

[8] = target: T1, human CD30; assay: flow cytometry, L-1236 cells (HL), average of 3 tests
Description: as §1

[9] = target: T1, human CD30; assay: flow cytometry, SUP-T1 cells (TLL), range of 2 tests
Description: as §1

[10] = target: T1, human CD30; assay: flow cytometry, SUP-M2 cells (ALCL), range of 3 tests
Description: as §1

[11] = target: T1, human CD30; assay: flow cytometry, L-540 cells (HL), range of 3 tests
Description: as §1

[12] = target: T1, human CD30; assay: flow cytometry, KARPAS-299 cells (ALCL), average of 2 tests
Description: as §1

[13] = target: T1, human CD30; assay: flow cytometry, SR-786 cells (ALCL), average of 3 tests
Description: as §1

| Binder | EC50 (read off the curve) [1] [mg/L] | EC50 [2] [mg/L] | EC50 [3] [mg/L] | EC50 [4] [mg/L] | EC50 [5] [mg/L] | EC50 [6] [mg/L] | EC50 (read off the curve) [7] [mg/L] | EC50 [8] [mg/L] | EC50 [9] [mg/L] | EC50 [10] [mg/L] | EC50 [11] [mg/L] | EC50 [12] [mg/L] | EC50 [13] [mg/L] |
| --- | --- | --- | --- | --- | --- | --- | --- | --- | --- | --- | --- | --- | --- |
| bsG1-huCD3-FEALxCD30-MDX060-FEAR (bispecific antibody, human IgG1, kappa, lambda, also called bsG1-huCD3xCD30-MDX060) heavy 1: not shown light 1: not shown heavy 2: QVQLQQWGAGLLKPSETLSLTCAVYGGSFSAYYWSWIRQPPGKGLEWIGDINHGGGTNYNPSLKSRVTISVDTSKNQFSLKLNSVTAADTAVYYCASLTAYWGQGSLVTVSSASTKGPSVFPLAPSSKSTSGGTAALGCLVKDYFPEPVTVSWNSGALTSGVHTFPAVLQSSGLYSLSSVVTVPSSSLGTQTYICNVNHKPSNTKVDKRVEPKSCDKTHTCPPCPAPEFEGGPSVFLFPPKPKDTLMISRTPEVTCVVVAVSHEDPEVKFNWYVDGVEVHNAKTKPREEQYNSTYRVVSVLTVLHQDWLNGKEYKCKVSNKALPAPIEKTISKAKGQPREPQVYTLPPSREEMTKNQVSLTCLVKGFYPSDIAVEWESNGQPENNYKTTPPVLDSDGSFFLYSRLTVDKSRWQQGNVFSCSVMHEALHNHYTQKSLSLSPG light 2: DIQMTQSPTSLSASVGDRVTITCRASQGISSWLTWYQQKPEKAPKSLIYAASSLQSGVPSRFSGSGSGTDFTLTISSLQPEDFATYYCQQYDSYPITFGQGTRLEIKRTVAAPSVFIFPPSDEQLKSGTASVVCLLNNFYPREAKVQWKVDNALQSGNSQESVTEQDSKDSTYSLSSTLTLSKADYEKHKVYACEVTHQGLSSPVTKSFNRGEC | ~0.4 | 0.302 | – | – | – | – | – | – | – | – | – | – | – |
| bsG1-huCD3-FEALxCD30-MDX060-FERR (bispecific antibody, human IgG1, kappa, lambda, Bispecific IgG1 made by controlled Fab-arm exchange; also called bsIgG1-huCD3-FEALxCD30-MDX060-FERR; bsG1-huCD3×CD30-MDX060) heavy 1: not shown light 1: not shown heavy 2: QVQLQQWGAGLLKPSETLSLTCAVYGGSFSAYYWSWIRQPPGKGLEWIGDINHGGGTNYNPSLKSRVTISVDTSKNQFSLKLNSVTAADTAVYYCASLTAYWGQGSLVTVSSASTKGPSVFPLAPSSKSTSGGTAALGCLVKDYFPEPVTVSWNSGALTSGVHTFPAVLQSSGLYSLSSVVTVPSSSLGTQTYICNVNHKPSNTKVDKRVEPKSCDKTHTCPPCPAPEFERGPSVFLFPPKPKDTLMISRTPEVTCVVVDVSHEDPEVKFNWYVDGVEVHNAKTKPREEQYNSTYRVVSVLTVLHQDWLNGKEYKCKVSNKALPAPIEKTISKAKGQPREPQVYTLPPSREEMTKNQVSLTCLVKGFYPSDIAVEWESNGQPENNYKTTPPVLDSDGSFFLYSRLTVDKSRWQQGNVFSCSVMHEALHNHYTQKSLSLSPG light 2: DIQMTQSPTSLSASVGDRVTITCRASQGISSWLTWYQQKPEKAPKSLIYAASSLQSGVPSRFSGSGSGTDFTLTISSLQPEDFATYYCQQYDSYPITFGQGTRLEIKRTVAAPSVFIFPPSDEQLKSGTASVVCLLNNFYPREAKVQWKVDNALQSGNSQESVTEQDSKDSTYSLSSTLTLSKADYEKHKVYACEVTHQGLSSPVTKSFNRGEC | – | – | 0.346 | 0.163 to 0.225 | 0.191 | 0.126 | ~0.1 | 0.202 | 0.257 to 0.434 | 0.134 to 0.223 | 0.202 to 0.469 | 0.202 | 0.328 |
